Measurements: publication PMC4770092, “Subnanometre enzyme mechanics probed by single-molecule force spectroscopy” (Nature Communications, 2016)

Key:
Test in all cases: coupled spectrophotometric assay
Format in all cases: biochemical, Aquifex aeolicus
[1] = substrate: Nc1ncnc2c1ncn2[C@@H]1O[C@H](COP(=O)(O)O)[C@@H](O)[C@H]1O
[2] = substrate: Nc1ncnc2c1ncn2[C@@H]1O[C@H](COP(=O)(O)OP(=O)(O)O)[C@@H](O)[C@H]1O; details: Mg-ADP/ADP
[3] = substrate: Nc1ncnc2c1ncn2[C@@H]1O[C@H](COP(=O)(O)OP(=O)(O)OP(=O)(O)O)[C@@H](O)[C@H]1O

B1: AdK 42-144 (Aquifex aeolicus VF5; INS144C/INS42C) (protein)
chain: MILVFLGPPGAGKGTQAKRLAKEKGFVHISTGDILREAVQKGCTPLGKKAKEYMERGELVPDDLIIALIEEVFPKHGNVIFDGFPRTVKQAEALDEMLEKKGLKVDHVLLFEVPDEVVIERLSGRRINPETGEVYHVKYNPPPPGCVKVIQREDDKPEVIKKRLEVYREQTAPLIEYYKKKGILRIIDASKPVEEVYRQVLEVIGDGN
notes: full length, Cys inserted between 42/43 and 144/145; N-terminal spacer …, C-terminal spacer and His6 kept; synthetic gene in pET11a, E. coli BL21(DE3); DNA handles on Cys in trap assay
Km [1]: 10 µM
Km [2]: 360 ± 80 µM
Km [3]: 41 ± 11 µM
